Data: IntAct's records for PubMed 12403843

B1: Vitamin D3 receptor (Homo sapiens), P11473 (parent)
chain: MEAMAASTSLPDPGDFDRNVPRICGVCGDRATGFHFNAMTCEGCKGFFRRSMKRKALFTCPFNGDCRITKDNRRHCQACRLKRCVDIGMMKEFILTDEEVQRKREMILKRKEEEALKDSLRPKLSEEQQRIIAILLDAHHKTYDPTYSDFCQFRPPVRVNDGGGSHPSRPNSRHTPSFSGDSSSSCSDHCITSSDMMDSSSFSNLDLSEEDSDDPSVTLELSQLSMLPHLADLVSYSIQKVIGFAKMIPGFRDLTSEDQIVLLKSSAIEVIMLRSNESFTMDDMSWTCGNQDYKYRVSDVTKAGHSLELIEPLIKFQVGLKKLNLHEEEHVLLMAICIVSPDRPGVQDAALIEAIQDRLSNTLQTYIRCRHPPPGSHLLYAKMIQKLADLRSLNEEHSKQYRCLSFQPECSMKLTPLVLEVFGNEIS

Variants of: B1
Details: with ncoa1_human NCOA1, Q15788
Chain of ncoa1_human NCOA1, Q15788 (Q15788 whole entry): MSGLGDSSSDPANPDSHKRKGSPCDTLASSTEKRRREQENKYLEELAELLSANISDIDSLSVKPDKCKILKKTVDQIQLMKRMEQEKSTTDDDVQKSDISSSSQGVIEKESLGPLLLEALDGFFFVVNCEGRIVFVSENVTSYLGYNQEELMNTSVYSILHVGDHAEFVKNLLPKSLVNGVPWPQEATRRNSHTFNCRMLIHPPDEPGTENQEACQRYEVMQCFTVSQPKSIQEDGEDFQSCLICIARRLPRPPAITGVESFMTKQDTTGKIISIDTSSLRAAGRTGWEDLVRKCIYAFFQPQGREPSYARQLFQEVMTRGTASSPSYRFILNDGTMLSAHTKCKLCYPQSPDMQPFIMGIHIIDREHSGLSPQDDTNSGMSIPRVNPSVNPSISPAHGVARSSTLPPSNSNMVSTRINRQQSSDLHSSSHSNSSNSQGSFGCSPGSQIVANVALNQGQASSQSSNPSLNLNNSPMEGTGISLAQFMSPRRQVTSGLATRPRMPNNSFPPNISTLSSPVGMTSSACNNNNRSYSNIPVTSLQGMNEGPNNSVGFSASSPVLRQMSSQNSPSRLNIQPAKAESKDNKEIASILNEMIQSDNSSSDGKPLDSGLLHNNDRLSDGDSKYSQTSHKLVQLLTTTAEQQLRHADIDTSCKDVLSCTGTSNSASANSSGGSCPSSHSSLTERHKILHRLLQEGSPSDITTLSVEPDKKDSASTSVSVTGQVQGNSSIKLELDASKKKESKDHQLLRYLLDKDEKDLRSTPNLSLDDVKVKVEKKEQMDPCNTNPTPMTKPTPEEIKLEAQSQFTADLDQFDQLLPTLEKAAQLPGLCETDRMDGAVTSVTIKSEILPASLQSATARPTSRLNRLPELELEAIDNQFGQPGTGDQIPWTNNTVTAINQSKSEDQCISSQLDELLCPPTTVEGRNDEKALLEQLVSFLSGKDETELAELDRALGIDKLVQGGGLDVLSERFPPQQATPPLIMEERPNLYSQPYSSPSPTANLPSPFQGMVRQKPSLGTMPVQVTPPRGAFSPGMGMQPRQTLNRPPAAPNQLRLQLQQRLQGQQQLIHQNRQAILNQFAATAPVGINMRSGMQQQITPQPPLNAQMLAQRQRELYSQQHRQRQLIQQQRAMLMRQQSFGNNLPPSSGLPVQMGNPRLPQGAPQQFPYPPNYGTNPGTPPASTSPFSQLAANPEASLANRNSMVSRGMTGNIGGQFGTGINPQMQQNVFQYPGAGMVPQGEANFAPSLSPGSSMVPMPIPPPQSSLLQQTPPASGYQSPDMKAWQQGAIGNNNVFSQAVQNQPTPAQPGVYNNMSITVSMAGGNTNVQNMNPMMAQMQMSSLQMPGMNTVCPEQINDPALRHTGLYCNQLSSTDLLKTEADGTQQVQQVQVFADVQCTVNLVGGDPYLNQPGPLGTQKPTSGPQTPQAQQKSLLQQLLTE

effect of a mutation on the interaction | Variant
disrupting interaction strength | E420K

Variants of: B1
Details: with med1_human MED1, Q15648
Chain of med1_human MED1, Q15648 (Q15648 whole entry): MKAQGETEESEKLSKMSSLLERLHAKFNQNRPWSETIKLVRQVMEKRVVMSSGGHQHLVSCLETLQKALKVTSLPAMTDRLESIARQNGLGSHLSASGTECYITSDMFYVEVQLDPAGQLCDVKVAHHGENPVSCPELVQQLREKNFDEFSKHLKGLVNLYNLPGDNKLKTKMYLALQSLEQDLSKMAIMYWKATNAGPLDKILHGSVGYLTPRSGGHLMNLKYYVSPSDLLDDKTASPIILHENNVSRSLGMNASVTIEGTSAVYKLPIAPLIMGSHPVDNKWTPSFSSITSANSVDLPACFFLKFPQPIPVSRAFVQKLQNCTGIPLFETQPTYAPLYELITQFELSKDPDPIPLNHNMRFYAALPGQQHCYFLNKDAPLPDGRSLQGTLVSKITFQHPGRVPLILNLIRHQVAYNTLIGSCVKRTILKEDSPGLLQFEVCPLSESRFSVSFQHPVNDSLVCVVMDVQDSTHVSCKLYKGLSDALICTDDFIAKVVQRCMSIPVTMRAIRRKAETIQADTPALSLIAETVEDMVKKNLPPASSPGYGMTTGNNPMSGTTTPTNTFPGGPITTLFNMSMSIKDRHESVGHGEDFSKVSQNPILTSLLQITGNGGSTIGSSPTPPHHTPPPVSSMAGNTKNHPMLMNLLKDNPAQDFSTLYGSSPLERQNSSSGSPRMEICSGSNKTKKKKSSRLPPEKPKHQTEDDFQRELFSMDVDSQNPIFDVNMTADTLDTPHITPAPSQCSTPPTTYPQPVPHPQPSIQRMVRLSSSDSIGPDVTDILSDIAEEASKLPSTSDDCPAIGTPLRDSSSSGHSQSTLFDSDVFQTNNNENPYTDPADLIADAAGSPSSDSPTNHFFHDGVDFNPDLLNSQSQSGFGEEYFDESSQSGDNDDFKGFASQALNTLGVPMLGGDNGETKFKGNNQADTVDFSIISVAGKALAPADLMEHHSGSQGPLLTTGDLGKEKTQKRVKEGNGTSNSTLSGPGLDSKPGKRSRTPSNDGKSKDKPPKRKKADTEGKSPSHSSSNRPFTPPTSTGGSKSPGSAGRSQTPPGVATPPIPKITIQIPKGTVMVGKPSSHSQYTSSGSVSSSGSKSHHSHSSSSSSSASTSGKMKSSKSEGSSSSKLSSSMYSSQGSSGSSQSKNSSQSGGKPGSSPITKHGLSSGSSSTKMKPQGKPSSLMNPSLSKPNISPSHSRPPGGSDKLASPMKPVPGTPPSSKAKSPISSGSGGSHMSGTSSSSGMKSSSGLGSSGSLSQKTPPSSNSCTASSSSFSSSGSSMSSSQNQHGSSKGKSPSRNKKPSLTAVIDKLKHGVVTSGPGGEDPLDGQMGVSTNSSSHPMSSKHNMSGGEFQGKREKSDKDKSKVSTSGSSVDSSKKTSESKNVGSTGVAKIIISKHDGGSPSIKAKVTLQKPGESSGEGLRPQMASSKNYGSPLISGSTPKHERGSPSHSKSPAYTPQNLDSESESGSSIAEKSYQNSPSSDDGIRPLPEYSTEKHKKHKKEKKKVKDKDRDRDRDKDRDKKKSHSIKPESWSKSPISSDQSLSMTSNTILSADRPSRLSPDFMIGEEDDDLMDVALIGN

effect of a mutation on the interaction | Variant
disrupting interaction strength | E420K
